Assay results from publication PMC9923440.

Biological target: SARS-CoV-2 spike protein ectodomain mutant S12AAA (L1145A-F1148A-L1152A) (SARS-CoV-2), P0DTC2
Test: pull-down
Details: remark: other sources report otherwise

B1: resistance to inhibitor of cholinesterase-3 (RIC3), Q7Z5B4 29-369 (natural protein)
chain: SRGKRQEPPPTPEGKLGRFPPMMHHHQAPSDGQTPGARFQRSHLAEAFAKAKGSGGGAGGGGSGRGLMGQIIPIYGFGIFLYILYILFKLSKGKTTAEDGKCYTAMPGNTHRKITSFELAQLQEKLKETEAAMEKLINRVGPNGESRAQTVTSDQEKRLLHQLREITRVMKEGKFIDRFSPEKEAEEAPYMEDWEGYPEETYPIYDLSDCIKRRQETILVDYPDPKELSAEEIAERMGMIEEEESDHLGWESLPTDPRAQEDNSVTSCDPKPETCSCCFHEDEDPAVLAENAGFSADSYPEQEETTKEEWSQDFKDEGLGISTDKAYTGSMLRKRNPQGLE
decrease in RIC3 binding vs S12: 67%
